Data on six molecules can be found in patent publication US20240150474A1 (Regeneron, published 2024).

One assay concerns the target T1, dimeric mouse BMPR1A (mouse, UniProt P36895 24-152, limits assumed).
T1 construct: Construct and dimerising part not described; also called Mouse Receptor BMPR1A
The experiment in a line: SPR Biacore T200, mAb captured by anti-human Fab, 100 nM dimeric receptor injected, 25C. The protocol:
(§1) ACVR1 mAbs were tested for cross-reactivity to a panel of bone morphogenic protein type 1 receptors including human and mouse ACVR1, BMPR1A, and BMPR1B, as well as ACVRL1 on a Biacore T200 as follows. In order to measure the specificity of ACVR1 mAbs, ACVR1 mAbs were captured with anti-human Fab immobilized on a CM5 chip. 100 nM or 10 nM of dimeric human or mouse ACVR1, ACVRL1, BMPR1A or BMPR1B were injected at 30 μL/min for 2 min (duplicate injections) and the experiment was performed at 25° C. Binding of different receptors to the captured mAb was determined using Scrubber 2.0c software.
On the technique in general: SPR reads the build-up and loss of mass on a sensor chip optically.

The target in a further assay is T2, dimeric human ACVRL1 (human, UniProt P37023 22-118, limits assumed).
T2 construct: Construct and dimerising part not described; also called Human Receptor ACVRL1
Described as above. As for the experimental part:
as §1

Another assay addresses T3, dimeric human ACVR1 (human, UniProt Q04771 21-123, limits assumed).
T3 construct: ACVR1'; also called Human Receptor ACVR1
T3 sequence (looked up): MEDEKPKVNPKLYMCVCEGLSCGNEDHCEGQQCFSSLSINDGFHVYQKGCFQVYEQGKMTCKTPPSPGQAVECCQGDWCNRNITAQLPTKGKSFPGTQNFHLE
The assay is described as above. The protocol: as §1

A further assay deals with T4, dimeric human BMPR1B (human, UniProt O00238 14-126, limits assumed).
T4 construct: Construct and dimerising part not described; also called Human Receptor BMPR1B
T4 sequence (looked up): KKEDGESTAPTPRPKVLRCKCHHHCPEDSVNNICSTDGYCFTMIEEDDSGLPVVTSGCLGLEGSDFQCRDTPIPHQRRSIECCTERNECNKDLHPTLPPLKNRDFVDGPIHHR
The description is as above. The protocol: as §1

The target in the next assay is T5, dimeric mouse ACVRL1 (mouse, UniProt Q61288 23-119, limits assumed).
T5 construct: Construct and dimerising part not described; also called Mouse Receptor ACVRL1
T5 sequence (looked up): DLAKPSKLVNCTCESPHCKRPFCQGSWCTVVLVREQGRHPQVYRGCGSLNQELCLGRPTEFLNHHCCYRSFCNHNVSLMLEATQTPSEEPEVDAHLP
The assay is described as above. The protocol: as §1

The target of another assay is T6, dimeric human BMPR1A (human, UniProt P36894 24-152, limits assumed).
T6 construct: Construct and dimerising part not described; also called Human Receptor BMPR1A
The description is as above. As for the experimental part:
as §1

The next assay addresses T7, dimeric mouse ACVR1 (mouse, UniProt P37172 21-123, limits assumed).
T7 construct: also called Mouse Receptor ACVR1
T7 sequence (looked up): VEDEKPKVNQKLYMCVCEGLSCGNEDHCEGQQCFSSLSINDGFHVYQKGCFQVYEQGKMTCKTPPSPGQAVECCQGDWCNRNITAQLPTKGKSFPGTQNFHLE
Described as above. The protocol: as §1

For another assay, the target named is T8, dimeric mouse BMPR1B (mouse, UniProt P36898 14-126, limits assumed).
T8 construct: Construct and dimerising part not described; also called Mouse Receptor BMPR1B
T8 sequence (looked up): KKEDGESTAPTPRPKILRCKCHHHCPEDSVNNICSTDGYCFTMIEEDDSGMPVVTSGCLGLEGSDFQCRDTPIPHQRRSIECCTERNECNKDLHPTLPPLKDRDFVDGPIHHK
Described as above. As for the experimental part: as §1

Assay [1] concerns the target full length human ACVR1 (amino acids 1-509, R206H, of accession #Q04771) on HEK293/BRE-luc/hACVR1-R206H-clone H2 cells (human) (UniProt Q04771). Put plainly: flow cytometry, secondary antibody alone on HEK293/hACVR1-R206H cells, 4C. Background: Flow cytometry measures light scatter and fluorescence of single cells or particles in a stream.
Assay [2] has the same target. Put plainly: flow cytometry, 70 nM antibody on HEK293/hACVR1-R206H cells, 4C.
The target of assay [3] is human ACVR1 extracellular domain expressed with a C-terminal myc-myc-hexahistidine tag (human). The experiment in a line: BLI (Octet) cross-competition: hACVR1.mmh captured on anti-His biosensor, saturated with 1st mAb REGN 5167 (50 ug/mL), then dipped into 2nd mAb Isotype Control (50 ug/mL); white cell. A general note: In BLI a coated tip is dipped into the sample, and binding shifts an interference pattern.

Assay [4] shares this target. The experiment in a line: BLI (Octet) cross-competition: hACVR1.mmh captured on anti-His biosensor, saturated with 1st mAb REGN 5168 (50 ug/mL), then dipped into 2nd mAb Isotype Control (50 ug/mL); white cell.
The target is the same in assay [5]. Put plainly: BLI (Octet) cross-competition: hACVR1.mmh captured on anti-His biosensor, saturated with 1st mAb REGN 5166 (50 ug/mL), then dipped into 2nd mAb Isotype Control (50 ug/mL); white cell.
The target is the same in assay [6]. Put plainly: BLI (Octet) cross-competition: hACVR1.mmh captured on anti-His biosensor, first dipped into 1st mAb Isotype Control (50 ug/mL), then into 2nd mAb Isotype Control (50 ug/mL); dotted cell (self-self).
In assay [7] the target is T9, mouse ACVR1 extracellular domain expressed with a C-terminal myc-myc-hexahistidine tag (mouse).
T9 construct: also called mACVR1-mmh; mACVR1.mmh
T9 chain: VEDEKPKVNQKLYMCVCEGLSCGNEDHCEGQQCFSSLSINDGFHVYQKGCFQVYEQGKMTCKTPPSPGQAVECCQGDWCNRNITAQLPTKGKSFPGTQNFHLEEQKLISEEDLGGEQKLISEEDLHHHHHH
Put plainly: SPR, mACVR1.mmh captured by anti-myc antibody on CM5, Fab injected, 37C. As for the experimental part:
In order to measure the binding constants of ACVR1 Fabs, mACVR1.mmh was captured with a myc antibody (REGN 642) immobilized on a CM5 chip. Different concentrations of ACVR1 Fabs were injected over mACVR1.mmh at 37° C. Binding rate constants and equilibrium dissociation rate constants were calculated by fitting data using 1:1 Langmuir binding model (Scrubber 2.0c).

The target of assay [8] is T10, human ACVR1 extracellular domain expressed with a C-terminal myc-myc-hexahistidine tag (human).
T10 construct: also called hACVR1-mmh; hACVR1.mmh
T10 chain: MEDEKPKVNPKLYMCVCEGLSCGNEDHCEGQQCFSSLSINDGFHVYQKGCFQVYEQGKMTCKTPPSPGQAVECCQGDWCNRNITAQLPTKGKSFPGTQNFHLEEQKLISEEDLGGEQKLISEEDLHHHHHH
The experiment in a line: SPR, hACVR1.mmh captured by anti-myc antibody on CM5, Fab injected, 37C. As for the experimental part: In order to measure the binding constants of ACVR1 Fabs, hACVR1.mmh was captured with a myc antibody (REGN642) immobilized on a CM5 chip. Different concentrations of ACVR1 Fabs were injected over hACVR1.mmh at 37° C. Binding rate constants and equilibrium dissociation rate constants were calculated by fitting data using 1:1 Langmuir binding model (Scrubber 2.0c).

T2 sequence (P37023 22-118 limits assumed): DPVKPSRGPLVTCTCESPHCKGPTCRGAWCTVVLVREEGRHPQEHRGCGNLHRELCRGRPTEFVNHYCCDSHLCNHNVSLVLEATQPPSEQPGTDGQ
T6 sequence (P36894 24-152 limits assumed): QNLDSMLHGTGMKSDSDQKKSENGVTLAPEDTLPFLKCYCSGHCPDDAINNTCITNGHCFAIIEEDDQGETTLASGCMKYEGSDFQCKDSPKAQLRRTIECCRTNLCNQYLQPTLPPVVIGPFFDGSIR
T1 sequence (P36895 24-152 limits assumed): as the sequence (P36894 24-152 limits assumed) above, with S16L, S21P, A74T counted along it

For the molecule Isotype control (Example 4) (antibody), the 100 nM Mouse Receptor Binding is 7 RU with dimeric mouse BMPR1A, 2 RU with dimeric mouse ACVRL1, 8 RU with dimeric mouse ACVR1 and 1 RU with dimeric mouse BMPR1B. Also, the 100 nM Human Receptor Binding with dimeric human ACVRL1 is 2 RU; with dimeric human ACVR1, 11 RU; in the assay with dimeric human BMPR1B, 19 RU; in the assay with dimeric human BMPR1A, 1 RU.
Molecule “Alexa Fluor-647 conjugated secondary antibody (Jackson ImmunoResearch, anti-human #109-607-003)” registered an MFI-Normalized to Unstained Control in [1] of 1 fold.
In assay [2], human IgG control antibody came in with an MFI-Normalized to Unstained Control of 3 fold.
On to “isotype-matched negative control (Example 5) (antibody)”, for which the wavelength shift of 2nd mAb binding in assay [3] worked out at 0.05 nm; in [4], 0.04 nm; in [5] it was 0.05 nm; in assay [6], 0.07 nm.

B1: REGN 5167 Fab (Fab, V domains shown)
VH: QLQLQESGPGLVKPSETLSLTCTVSGGSITSSSYYWAWIRQPPGKGLEWIGKIYYSGSTHYNPSLKSRVTISVDTSKNQFSLKLSSVTAADTAVYYCARVGGHGYGDSAGLAFDIWGQGTMVTVSS
VL: EIVLTQSPGTLSLSPGERATLSCRASQSVSSAFLAWYQQKPGQAPRLLIYGASYRHTGIPDRFSGSGSGTDFTLTISRLEPEDFAVYYCQHYGVGPRTFGGGTKVEIK
notes: also called ACVR1 Fab
Take B1: in assay [7], binding was put at a Kd of 0.178 nM, the koff is 9.72e-05 s⁻¹, the kon came out at 545000 M⁻¹ s⁻¹ and the t1/2 is 1.98 h. Further, in assay [8], the dissociation constant (Kd) came to 0.17 nM, the koff is 9.36e-05 s⁻¹, the kon came out at 549000 M⁻¹ s⁻¹ and the t1/2 came to 2.05 h.

B2: REGN 5166 Fab (Fab, V domains shown)
VH: QVQLVESGGGVVQPGRSLRLSCAASGFTFSAYWMHWVRQAPGKGLEWVAVISYDGSNKYYADSVKGRFTISRDHSKNTLYLQMNSLRAEDTAVYYCAKGDAYDSWRILLGGDYYGMDVWGQGTTVTVSS
VL: EIVLTQSPGTLSLSPGERATLSCRASQSVSSSYLAWYQQKPGQAPRPLIYGASSRATGIPDRFSGSGSGTDFTLTISRLEPEDFAVYYCQQGGDAPPYTFGGGTKVEIK
notes: also called ACVR1 Fab
For the molecule B2, in assay [7], the Kd was found to be 0.16 nM, the koff stood at 0.000105 s⁻¹, the kon is 653000 M⁻¹ s⁻¹ and the t1/2 is 1.83 h. In addition, in assay [8], the Kd was determined as 0.154 nM, the koff amounted to 0.000106 s⁻¹, the on-rate constant (kon) was 690000 M⁻¹ s⁻¹ and the t1/2 was 1.82 h.

One may read the Kd as the concentration at which binding is half-saturated. A word on the koff: it is a measure of how fast the partners let go of each other. A lower koff goes with slow dissociation. The term kon denotes a measure of how fast the partners come together. Low readings indicate slower complex formation, high ones faster complex formation.
